Data on one substance can be found in patent US9439886B2, “Methods for producing crosslinked flavonoid hydrogels” (Agency for Science, Technology and Research, priority 2009, dated 2016).

Series [1] in a line: Gelation time of HA-EGCG hydrogels (vial tilting). Conditions: pH 7.4, no exogenous H2O2, HA-EGCG 17.5 mg/ml. The format is physicochemical. On the procedure:
Preparation of HA-EGCG solution: For all experiments described below, HA-EGCG stock solution was prepared by dissolving the conjugates in distilled water at 25 mg/ml at room temperature using a magnetic stirrer. Dissolution took about 25 min and the pH of the solution was 2.5. Then the pH was brought to 6 using 2 M NaOH before diluting with sodium phosphate buffer (final ionic strength: 0.15 M) to the desired concentration and pH, depending on the gelation condition.
Formation of HA-EGCG hydrogels through air autoxidation: To form HA-EGCG hydrogel by air autoxidation, HA-EGCG solution was diluted to 17.5 mg/ml by adding sodium phosphate buffer with pH between 6.0 to 8. To determine the gelation time, glass vials containing 0.25 ml of HA-EGCG were tilted frequently at 90 degrees for 5 sec, the time at which no obvious flowing motion could be observed was recorded as the gelation time.
Acceleration of HA-EGCG hydrogel formation through air autoxidation by adding catalase: Stock solution of catalase was prepared by dissolving the enzyme in distilled water at 22.5 kU/ml. […] The gelation time was determined as described above.
Formation of HA-EGCG hydrogel by HRP-mediated crosslinking reaction: HRP stock solution was prepared in water at 6.25 U/ml. […] The gelation time was determined as described above.

Series [2] in a line: H2O2 production by HA-EGCG (PeroXOquant peroxide assay). Type of series: physicochemical. To be noted: HA-EGCG 10 mg/ml; pH 7.4; over 35 min; increased with time. The protocol:
Measurement of H2O2 Production by HA-EGCG: The amount of H2O2 produced by HA-EGCG was determined using the PeroXOquant Quantitative Peroxide Assay Kits from Pierce. In order to determine the amount of H2O2 produced during the dissolution process, a sample of the dissolved conjugates was diluted 20-fold with distilled water, 20 μl of which was added to the well of a 96-wellplate follow by the addition of 200 μl working reagent prepared according to manufacturer's protocol. The HA-EGCG solution was then diluted to 10 mg/ml with phosphate buffer. The final ionic strength of the mixture was 0.15 M and pH was 7.4. For the next 35 min, 20 μl of the HA-EGCG solution was drawn out every 5 min and diluted 10-fold with distilled water. 20 μl of the diluted sample was then added to a well of a 96-wellplate followed by 200 μl of working reagents. After the last sample was collected and the working reagent added, the plate was incubated for another 1 h before reading the absorbance at 595 nm. The amount of H2O2 produced by HA-EGCG was determined by comparing to a set of H2O2 standards.

Turning to “hyaluronic acid-epigallocatechin gallate [HA-EGCG]”, the gelation time is on record as 50 min in series [1] (HRP 0 unit/ml) and 9 min in series [1] (HRP 0.125 unit/ml). Moreover, the “amount of H2O2 generated during air-autoxidation” value in series [2] is listed as “micromolar range”.
